B1: Plexin-A2 (Mus musculus), P70207 (parent)
chain: MEQRRFYLRAMQADNLSVVLLSVAWLLLARGTTGMPQYSTFHSENRDWTFNHLTVHRRTGAVYVGAINRVYKLTGNLTIQVAHKTGPEEDNKACYPPLIVQPCSEVLTLTNNVNKLLIIDYSENRLLACGSLYQGVCKLLRLDDLFILVEPSHKKEHYLSSVNKTGTMYGVIVRSEGEDGKLFIGTAVDGKQDYFPTLSSRKLPRDPESSAMLDYELHSDFVSSLIKIPSDTLALVSHFDIFYIYGFASGGFVYFLTVQPETPDGMAINSAGDLFYTSRIVRLCKDDPKFHSYVSLPFGCTRAGVEYRLLQAAYLAKPGEALAQAFNISSDEDVLFAIFSKGQKQYHHPPDDSALCAFPIRAINLQIKERLQSCYHGEGNLELNWLLGKDVQCTKAPVPIDDNFCGLDINQPLGGSTPVEGLTLYTTSRDRLTSVASYVYNGYSVVFVGTKSGKLKKIRADGPPHGGVQYEMVSVFKDGSPILRDMAFSINQLYLYVMSERQVTRVPVESCEQYTTCGECLSSGDPHCGWCALHNMCSRRDKCQRAWEANRFAASISQCMSLEVHPNSISVSDHSRLLSLVVNDAPNLSEGIACAFGNLTEVEGQVSGSQVICISPGPKDVPVIPLDQDWFGLELQLRSKETGKIFVSTEFKFYNCSAHQLCLSCVNSAFRCHWCKYRNLCTHDPTTCSFQEGRINVSEDCPQLVPTEEILIPVGEVKPITLKARNLPQPQSGQRGYECVLSIQGAVHRVPALRFNSSSVQCQNSSYQYDGMDISNLAVDFAVVWNGNFIIDNPQDLKVHLYKCAAQRESCGLCLKADHKFECGWCSGERRCTLHQHCPSTSSPWLDWSSHNVKCSNPQITEILTVSGPPEGGTRVTIHGVNLGLDFSEIAHHVQVAGVPCTPIPGEYIIAEQIVCEMGHAVIGTTSGPVRLCIGECKPEFMTKSHQQYTFVNPSVLSLSPIRGPESGGTMVTITGHYLGAGSSVAVYLGNQTCEFYGRSMNEIVCVSPPSSNGLGPVPVSVSVDRARVDSSLQFEYIDDPRVQRIEPEWSITSGHTPLTITGFNLDVIQEPRVRVKFNGKESVNVCTVVNTTTLTCLAPSLTSDYRPGLDTVERPDEFGFLFNNVQSLLIYNDTKFIYYPNPTFELLSPTGILDQKPGSPIILKGKNLCPPASGGAKLNYTVMIGETPCTVTVSETQLLCEPPNLTGQHKVMVHVGGMVFSPGSVSVISDSLLTLPAIISIAAGGSLLLIIVIIVLIAYKRKSRENDLTLKRLQMQMDNLESRVALECKEAFAELQTDINELTSDLDRSGIPYLDYRTYAMRVLFPGIEDHPVLRELEVQGNGQQHVEKALKLFAQLINNKVFLLTFIRTLELQRSFSMRDRGNVASLIMTGLQGRLEYATDVLKQLLSDLIDKNLENKNHPKLLLRRTESVAEKMLTNWFAFLLHKFLKECAGEPLFMLYCAIKQQMEKGPIDAITGEARYSLSEDKLIRQQIEYKTLILNCVNPDNENSPEIPVKVLNCDTITQVKEKILDAVYKNVPYSQRPRAVDMDLEWRQGRIARVVLQDEDITTKIEGDWKRLNTLMHYQVSDRSVVALVPKQTSSYNIPASASISRTSISRYDSSFRYTGSPDSLRSRVPMITPDLESGVKVWHLVKNHDHGDQKEGDRGSKMVSEIYLTRLLATKGTLQKFVDDLFETLFSTVHRGSALPLAIKYMFDFLDEQADRHSIHDTDVRHTWKSNCLPLRFWVNVIKNPQFVFDIHKGSITDACLSVVAQTFMDSCSTSEHRLGKDSPSNKLLYAKDIPSYKNWVERYYADIAKLPAISDQDMNAYLAEQSRLHATEFNMLSALNEIYSYVSKYSEELIGALEQDEQARRQRLAYKVEHLINAMSIES
partner: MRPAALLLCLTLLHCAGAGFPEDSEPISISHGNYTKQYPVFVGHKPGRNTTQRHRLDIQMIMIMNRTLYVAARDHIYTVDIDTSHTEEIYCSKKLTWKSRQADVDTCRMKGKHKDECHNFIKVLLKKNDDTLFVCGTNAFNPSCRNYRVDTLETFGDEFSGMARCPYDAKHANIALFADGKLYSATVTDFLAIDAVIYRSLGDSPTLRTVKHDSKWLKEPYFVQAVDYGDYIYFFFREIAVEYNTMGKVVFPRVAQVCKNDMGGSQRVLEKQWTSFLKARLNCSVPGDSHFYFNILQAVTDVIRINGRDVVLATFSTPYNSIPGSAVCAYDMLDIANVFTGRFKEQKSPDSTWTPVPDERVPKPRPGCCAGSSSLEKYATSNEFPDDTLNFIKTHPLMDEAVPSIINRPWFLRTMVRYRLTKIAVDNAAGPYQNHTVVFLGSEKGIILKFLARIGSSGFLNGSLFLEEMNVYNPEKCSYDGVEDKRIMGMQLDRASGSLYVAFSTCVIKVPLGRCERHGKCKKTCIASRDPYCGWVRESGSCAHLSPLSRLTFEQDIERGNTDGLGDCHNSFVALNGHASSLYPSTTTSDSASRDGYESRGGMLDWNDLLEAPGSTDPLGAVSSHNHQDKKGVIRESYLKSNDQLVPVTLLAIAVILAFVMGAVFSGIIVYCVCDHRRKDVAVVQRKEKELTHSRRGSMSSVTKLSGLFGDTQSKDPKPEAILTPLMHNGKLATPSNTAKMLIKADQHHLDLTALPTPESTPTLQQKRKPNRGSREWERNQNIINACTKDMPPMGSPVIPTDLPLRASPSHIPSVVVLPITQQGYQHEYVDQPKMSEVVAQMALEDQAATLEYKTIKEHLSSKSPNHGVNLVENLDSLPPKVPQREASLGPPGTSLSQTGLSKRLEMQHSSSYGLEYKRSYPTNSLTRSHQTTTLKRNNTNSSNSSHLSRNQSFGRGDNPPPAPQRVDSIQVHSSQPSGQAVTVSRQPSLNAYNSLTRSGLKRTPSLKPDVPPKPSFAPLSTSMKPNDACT
B2: Semaphorin-6A (Mus musculus), O35464-1 (parent)
chain: B1 partner

Variants of: B1
Conditions: with Sema6a

effect of a mutation on the interaction	Variant
disrupting interaction	A396E
disrupting interaction	F221R

Variants of: B2
Conditions: with plxa2_mouse Plxna2, P70207

effect of a mutation on the interaction	Variant
decreasing interaction	L191R
